# Experimental data published in the DeepSol protein solubility set.
# Test: soluble on expression in E. coli; label from the status in PepcDB or PDB records
row,Sequence,soluble on expression in E. coli
1,MRGSHHHHHHTDPALRANSLFASTARGLEELLKTELENLGAVECQVVQGGVHFKGDTRLVYQSLMWSRLASRIMLPLGECKVYSDLDLYLGVQAINWTEMFNPGATFAVHFSGLNDTIRNSQYGAMKVKDAIVDAFTRKNLPRPNVDRDAPDIRVNVWLHKETASIALDLSGDGLHLRGYRDRAGIAPIKETLAAAIVMRSGWQPGTPLLDPMCGSGTLLIEAAMLATDRAPGLHRGRWGFSGWAQHDEAIWQEVKAEAQTRARKGLAEYSSHFYGSDSDARVIQRARTNARLAGIGELITFEVKDVAQLTNPLPKGPYGTVLSNPPYGERLDSEPALIALHSLLGRIMKNQFGGWNLSLFSASPDLLSCLQLRADKQYKAKNGPLDCVQKNYHVAESTPDSKPAMVAEDYTNRLRKNLKKFEKWARQEGIECYRLYDADLPEYNVAVDRYADWVVVQEYAPPKTIDAHKARQRLFDIIAATISVLGIAPNKLVLKTRERQKGKNQYQKLGEKGEFLEVTEYNAHLWVNLTDYLDTGLFLDHRIARRMLGQMSKGKDFLNLFSYTGSATVHAGLGGARSTTTVDMSRTYLEWAERNLRLNGLTGRAHRLIQADCLAWLREANEQFDLIFIDPPTFSNSKRMEDAFDVQRDHLALMKDLKRLLRAGGTIMFSNNKRGFRMDLDGLAKLGLKAQEITQKTLSQDFARNRQIHNCWLITAAGLCGR,soluble
2,MVGEGEIELRNELPGGEVHAAWHLRYAGHDFFVKCDEREMLRGFTAEADQLELLSRSKTVVVPKVWAVGSDRDYSFLVMDYLSPRPLDAHNAFILGQQLARLHQWSDQPQFGLDFDNALSTTPQPNTWQRRWSTFFAEQRIGWQLELAAEKGITFGNIDAIVEHVQQRLASHQPQPSLLHGDLWSANCALGPDGPYIFDPACYWGDRECDLAMLPLHTDQPPQIYDGYQSVSPLPLDFLDRQPIYQLYTLLNRARLFGGQHLATAQKAMDRLLAVLEHHHHHH,not soluble
3,GMKDTDETAFLNSLFMDFTSENELELFLKSLDEVWSEDLYSRLSAAGLIRHVISKVWNKEQHRISMVFEYDSKEGYQKCQEIIDKEFGITLKEKLKKFVFKIHNNRGVVVSEFIRST,soluble
4,HATMEPLNCFVDLQSDSCLIRTGSQFQTGDRNAAARVAGLKPEQVTLETTFLGGGFGRRACPASDFVIEAVQVAKTVGKPVMVIRTREDDMRAG,not soluble
5,METIWIPHLHTALAYMHERFLELFILPDSCPSKKLEELQQKEGN,not soluble
6,MDGRRLVVRHGADTSVDTVWNILTDTDCWADWGPSVTAVETATRYIDDGTTGRVCVAGAVWLPFEVTACTPYRWTWTVARLPATGHFVEERAGGSVVGFEIPPLATGYAPVCARACQRIATLAQQRDALEHHHHHH,soluble
7,MSLRAVIRVAFILMDNFSLMSFTAAMDALVTANLMGDAPIFDIVKIGLKGRVAMSDLGIAIPTDLDLSELRARHDLLLVVGGLRVDLKSTPCLRRKLFAAASAGTSLGGLWNGAYFLADARVMGGHTCAVHPDGRAMMADAFPDLRISDRSHVVDLERVTCAGASSSLRMMLEYIRVTKGSSLARAVEEILGCDEHEGHHHHHH,soluble
8,MSGKEEFQTIKERAKRKLERDMGADLLAALNDPKTVEVMLNADGKVWHERLGEPMRYICDMRPSQSQAIIETVAGFHGKEVTRHSPILEGEFPLDGSRFAGQLPPVVAAPTFAIRKRAVAIFTLEQYVEAGIMTREQYEVIKSAVAAHRNILVIGGTGSGKTTLVNAIINEMVAFNPSERVVIIEDTGEIQCAAENAVQYHTSIDVSMTLLLKTTLRMRPDRILVGEVRGPEALDLLMAWNTGHEGGAATLHANNPKAGLSRLAMLISMHPDSPKPIEPLIGEAVHVVVHIARTPSGRRVQEILEVLGYENGQYITKTL,not soluble
9,MSIYYDLYENPKQEDAEEQKLLHARVVPSGTYTTKEFVERVSMMHHIPHAQLVGAVEAITDELQTLLSRGYIVEFGDLGHFSLTLSLEKEIIDRKEVRSPSIRLKNIKLKVKQTYKRELNSKMDLERISSPTRSNAKISEDECLKKLQDFLEKHPCINRADYCAITGMSRLQALHQLNLFIEKGIIQKYGNGKTVVYIRVV,not soluble
10,MSLKNLQCELDWERRFDGMQQHLGQHLLSGCFYDLFGANTCGFHLGKEISTVDIVGFLDEKTIREAEKEANRLIFENLEVKSYAPSKKELKKVKTRRALPKTDEEIRIVEIVGLDLNACCGVHPRNTRDLQVIKIRRWEKHKNATRIEYVAGNRAVSEGHHHHHH,not soluble
11,MAILQIGAGGVGWVVAHKAAQNNDVLGDITIASRTVGKCEKIIESIQKKNNLKDSTKKLEARAVNADDVDSLVALIEEVKPDLVINAGPPWVNMPIMEACYRAKVSYLDTSVAVDLCSEGQQVPEAYDWQWGYREKFEE,not soluble
12,MTKFDLNDSSVVVIVGSGAGGGTLGNELAQKGVKVVILEAGPRIENQDFINDEWESFSQLAWTDARTTSGTWRVAKDFSGLPAWIVKAVGGSTVHWAGASLRFDEHEFRVKSAYGNIPGANLLDWPVTLAEMEPWYAKAENKMGVTRTNGIPGLPGNNNFKVLEAGAKKLGYKTVHTGNMAINSQPRDGRGSCQQIGFCFQGCKSGAKWSTLYTEIPKGEATGNLEVRPSSMAVKIEHDAGGKVTGVVYADEAGAMQRQKARIVAVAGNSIESPRLLLNSASTMFPDGLANSSGQVGRNYMRHMTGSVYAVFEKSVHMYRGTTMAGIIRDEAANNPKRGFVGGYEMETLSIGLPFMAAFLNPGAWGRPFTSALDGYPRMAGMWLVGEDMPQETNRITLDPVVKDKFGQPVASVHFDDHPNDIAMRAHAYKQGAAVYDAVGATVTYPTPPYPSTHNLGTNRMSEKPRDGVVNKFGQSHDVKNLFVSDGSQFTSGAACNPTLTIVALAIRQADYIAGAMQKKEILEHHHHHH,not soluble
13,MSLEFIPRSEQRPIVDTSSTTLDLIYFDLVTLASNEQDIRRLPAHESLYVVLSGQVDIEVDGIMFEAVGRRADIWGGDADSVYAPVGANVRISARGAAAEVAIAGGLCDTRYAAFRITPDEVDAVNVGSSDTHSQRRIVHLLGQRQNGRCGNLLVSELYAGEGCWSGYPPHKHDTEDGDVETRHEELYHYRFQPETGFGSQITYDEDGPVKILMTRNGDTVLVDRGYHPTVTSPGHQGYIFTILVGKHRRGLIQRFDPAHQHLTKTIPGEGHHHHHH,soluble
14,MSLGKQLAALPADEVVEQLELAVERFLIQRKIPDQTELGFILNHLHYQTKKGGAVGVQELNIDKNIHQIAVIGDLHGDAESTKYIFQKVLLNKTFMESGMAVFLGDYVDRGQHGINVLTSILAAKVVYGDRVITIRGNHESENLNRRYGFLDEVSRAYGHAFYHKTIAPFFKLLPVAYVASVTSHTTLANRILFVHGGLPRNATLDTLILRSKVDIPSSNDITDQRYTHSLENCLPEDAVQDILWSDPSQTVHGKDTLNDYTKNPRGAGILYSSEFYRKFATENRVLAMFRGHQVVKNGFRRDFFNHYTVFSSSDYVGMKNKGAYAVLDVRCMRTTITSEVDVIGLQNYKEVNLAHCIHAYPVVQKPENEGHHHHHH,soluble
15,GMSSSDRYMQRGVSSQKEDVHKAIKSIDKGIYPRAFCKIIPDILGGDPEYCNIMHADGAGTKSSLAYVYWKETGDISVWKGIAQDAVIMNIDDLICVGAVDNILLSSTIGRNKNLIPGEVLAAIINGTEEVLQMLRDNGIGIYSTGGETADVGDLVRTIIVDSTVTCRMKRQDVISNENIKAGNVIVGFASYGQTSYETEYNGGMGSNGLTSARHDVFNNVLASKYPESFDPKVPENLVYSGEMNLTDPYLNVPLDAGKLVLSPTRTYAPLMKEIIHQYKGKLDGVVHCSGGGQTKVLHFTDATTHIIKDNLFDVPPLFQLIQGQSNTPWEEMYKVFNMGHRLEIYTDAAHAEGMIAIAKKFNIEAKIIGRVEAPVAGKRLTITGPQGTEYTYA,soluble
16,MLIEPRDPLIVRDGRPFTNSPGARAKSLPFPLPQTLAGAYRTRRALLEGLPLPERAEEVLRWGLRGPLLAEEGEGGWRLLAPRPLDALKLGEALYPLRPLELPQGAGTNLPEGLSPVGLPSPALKEKPAPLPAFWYWESFLEWLLQDAPAGFAPRGHEGPVPETRTHVALDPAAQTAREGFLFQTSGLEFVRGRRRLALVLWPEGPEPEGVFPLGGERRLAFWQKGGPGVPPLPEEVVAGLLRHRAARLVFLTPAFLGEAYLPKGRAFQGASVVAAVVGRPLAVSGWNLKEGKPKPSRRAVPAGSVYFVRLPEAWGEGEVRDWAEKVWFQNLSEEEQDRRDGFGLAALGLWDGKLRRWEEA,soluble
17,MAHHHHHHMEGQERRSVVEMTNTKTILLDPKDGWAPKAQFDFDASLWSIPPTHRIVHTFQDTKHKTYATQKDVYNLIAKDLVPHVFNGFNSCILTYGQTGSGKTYTMMGLYDPNASCGGDGEEGIIPRVSNDIFIILKERMEEEAKTRPPRDRTKFRVEVSFVEIYMERVRDLLDPALRHTRSNEHLQDARIRQDPYSGPFVEGVTKYEVENWTQCCTLLERGSQHRTTCATAVHNQSSRSHAIFQLTVVQEQVVPGNNKYALPAFKTQAGRINLVDLAGSERGGFQDYVKESAAINTSLLALRRVIDNLTERQNMLMEMAEAEITGKHYQERPLPQVPFRDSVLTWLLSDSIGGNARTTMVATLSPLVKNYADTLATLQWSSRARNLVTLVKMNDQALVHNGMASHAGALDNAVRIQRQNLDSLRQTLRSKQEAAQQLERQTKEHKKSLTKVRGRERAILRDRAALIIQRAFHRFLFYKKYEAYELHHAKLRGGNKRGTGDAADFQKIRKEAEAREQAAKEALKAEEALTDEKAAAVARYESNYEARALRRREAEERQARIVEVINGNELLRQYVEKRRQEVEALRSVADNENREREMAVKKLADMIKAIADHKTDQHKRKVEEDQKMLEMLRKKRDEVRSRRYEVLRQLQTLRERHKKVVKK,not soluble
18,MGSDKIHHHHHHMSKNVLIVSASPRKGGNSDLLCDQFIQGVLESKNQVEKIFLKDKDINYCTGCGACYEKEANCSQTDDMGEILEKMIGADVIVLATPVYFYTMNAQMKTMIDRTCSRYTEICDKDFYFIVTAADENVADMERTIEGFRGFTSCLNGSKEKGIVYGVGAWNVGDIKGSKAMKQAYEMGKLA,not soluble
19,MTENIHKHRILILDFGSQYTQLVARRVRELGVYCELWAWDVTEAQIRDFNPSGIILSGGPESTTEENSPRAPQYVFEAGVPVFGVCYGMQTMAMQLGGHVEASNEREFGYAQVEVVNDSALVRGIEDALTADGKPLLDVWMSHGDKVTAIPSDFITVASTESCPFAIMANEEKRFYGVQFHPEVTHTRQGMRMLERFVRDICQCEALWTPAKIIDDAVARIREQVGDDKVILGLSGGVDSSVTAMLLHRAIGKNLTCVFVDNGLLRLNEAEQVLDMFGDHFGLNIVHVPAEDRFLSALAGENDPEAKRKIIGRVFVEVFDEEALKLEDVKWLAQGTIYPDVIESAASATGKAHVIKSHHNVGGLPKEMKMGLVEPLKELFKDEVRKIGLELGLPYDMLYRHPFPGPGLGVRVLGEVKKEYCDLLRRADAIFIEELRKADLYDKVSQAFTVFLPVRSVGVMGDGRKYDWVVSLRAVETIDFMTAHWAHLPYDFLGRVSNRIINEVNGISRVVYDISGKPPATIEWE,soluble
20,MAGDPMSMHPALKYIQGYPQHIVEQVAQLIANDKLIPWFEQRYPERHDIQSEKALFDFTMALKNQYMKKTAPLSKVVYDGKIHLINNALGLHSYVSRVHGNKLKAKNEIRIANVFKQAPEPLLRMLVVHELAHLKEKEHNKAFYQLCCHMEPNYHQLELDARLYMMVLELKAGKALEHHHHHH,not soluble
21,MGSDKIHHHHHHCWTYHYSEKPMNWENARKFCKQNYTDLVAIQNKREIEYLENTLPKSPYYYWIGIRKIGKMWTWVGTNKTLTKEAENWGAGEPNNKKSKEDCVEIYIKRERDSGKWNDDACHKRKAALCYTASCQPGSCNGRGECVETINNHTCICDAGYYGPQCQYVVQCEPLEAPELGTMDCIHPLGNFSFQSKCAFNCSEGRELLGTAETQCGASGNWSSPEPICQVVQCEPLEAPELGTMDCIHPLGNFSFQSKCAFNCSEGRELLGTAETQCGASGNWSSPEPICQETNRSFSKIKEGDYN,not soluble
